Laboratory results from patent US20250320281A1.

What was measured:
Assay in all cases: cell-based or functional assay
[1] = target: HIV-1 92BR020 envelope glycoprotein (Env) on pseudovirus (HIV-1)
[2] = target: HIV-1 92RW020 Env (pseudovirus, clade A) (HIV-1)
[3] = target: HIV-1 92UG024 envelope glycoprotein (Env) on pseudovirus (HIV-1)
[4] = target: HIV-1 94UG103 envelope glycoprotein (Env) on pseudovirus (HIV-1)
[5] = target: HIV-1 APV13 Env (pseudovirus, clade B) (HIV-1)
[6] = target: HIV-1 APV17 Env (pseudovirus) (HIV-1)
[7] = target: HIV-1 APV6 Env (pseudovirus, clade B) (HIV-1)
[8] = target: HIV-1 Env of isolate 92UG024 (clade D), on pseudovirus (HIV-1)
[9] = target: HIV-1 Env of isolate MGRM-AE-006 (HIV-1)
[10] = target: HIV-1 Env of isolate MGRM-D-013 (pseudovirus) (HIV-1)
[11] = target: HIV-1 Env of isolate MGRM-D-028 (pseudovirus) (HIV-1)
[12] = target: HIV-1 Env of isolate MGRM-F1-014 (HIV-1)
[13] = target: HIV-1 Env of isolate THR0.18 (subtype B pseudovirus) (HIV-1)
[14] = target: HIV-1 JRFL Env (pseudovirus, clade B) (HIV-1)
[15] = target: HIV-1 MGRM-C-026 Env (pseudovirus, clade C) (HIV-1)
[16] = target: HIV-1 MGRM-C-027 Env (pseudovirus, clade C) (HIV-1)
[17] = target: HIV-1 Env of isolate 93MW959 (clade C) (HIV-1 isolate 93MW959)
[18] = target: HIV-1 Env of isolate 98IN022 (clade C) (HIV-1 isolate 98IN022)
[19] = target: HIV-1 Env of isolate LAVI_C22 (HIV-1)
[20] = target: HIV-1 Env of isolate MGRM-D-003 (clade D pseudovirus) (HIV-1)
[21] = target: HIV-1 Env of isolate MGRM-D-014 (clade D pseudovirus) (HIV-1)
[22] = target: HIV-1 Env of isolate MGRM-D-021 (clade D pseudovirus) (HIV-1)
[23] = target: HIV-1 Env of isolate NL43, clade B, on pseudovirus (HIV-1)
[24] = target: HIV-1 Env of pseudovirus MGRM-AE-005 (clade CRF01_AE) (HIV-1)
[25] = target: HIV-1 Env of pseudovirus MGRM-F1-016 (HIV-1)
[26] = target: HIV-1 Env of pseudovirus MGRM-G-001 (clade G) (HIV-1)
[27] = target: HIV-1 Env of pseudovirus MGRM-G-028 (HIV-1, clade G isolate MGRM-G-028)
[28] = target: HIV-1 IAVI-C3 envelope glycoprotein (Env) on pseudovirus (HIV-1)
[29] = target: HIV-1 envelope glycoprotein (Env) of isolate 93UG077, clade A (HIV-1)
[30] = target: HIV-1 envelope glycoprotein (Env) of isolate MGRM-A-013, clade A (HIV-1)
[31] = target: aMLV envelope protein on pseudovirus (negative control)
[32] = target: HIV-1 Env of isolate 92TH021 (pseudovirus) (HIV-1)
[33] = target: HIV-1 Env of pseudovirus MGRM-F1-010 (HIV-1)

Chain of 1443_C16 (PG16) (TCN-116) (antibody) (VH): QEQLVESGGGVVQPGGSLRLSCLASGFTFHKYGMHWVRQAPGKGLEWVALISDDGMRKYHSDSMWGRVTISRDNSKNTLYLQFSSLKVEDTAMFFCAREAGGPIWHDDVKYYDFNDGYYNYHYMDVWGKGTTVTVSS
Chain of 1443_C16 (PG16) (TCN-116) (antibody) (VL): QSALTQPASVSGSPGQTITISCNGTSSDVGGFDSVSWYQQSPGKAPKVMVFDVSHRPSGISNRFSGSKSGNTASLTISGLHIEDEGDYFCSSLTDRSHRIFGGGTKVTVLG

4858_P08 (PGT-123) (antibody)
neutralization IC50 [1]: 0.013 µg/mL | neutralization IC80 [1]: 0.039 µg/mL | neutralization IC90 [1]: 0.0741 µg/mL | neutralization IC95 [1]: 0.134 µg/mL | IC50 neutralization [2]: 0.0038 µg/mL | neutralization IC50 [3]: > 10 µg/mL | neutralization IC80 [3]: > 10 µg/mL | neutralization IC90 [3]: > 10 µg/mL | neutralization IC95 [3]: > 10 µg/mL | neutralization IC50 [4]: 0.846 µg/mL | neutralization IC80 [4]: 3.29 µg/mL | neutralization IC90 [4]: 8.56 µg/mL | neutralization IC95 [4]: > 10 µg/mL | IC50 neutralization [5]: 0.222 µg/mL | neutralization IC50 (pseudovirus) [6]: 0.18 µg/mL | IC50 neutralization [7]: 0.0328 µg/mL | IC50, pseudovirus neutralization [8]: > 10 µg/mL | IC50 [9]: > 50 µg/mL | IC50, pseudovirus neutralization [10]: > 50 µg/mL | IC50, pseudovirus neutralization [11]: 0.132 µg/mL | IC50 (µg/mL), pseudovirus neutralization [12]: 0.111 µg/mL | IC50 (µg/mL), pseudovirus neutralization [13]: > 50 µg/mL | IC50 neutralization [14]: 0.0283 µg/mL | IC50 neutralization [15]: 0.0031 µg/mL | IC50 neutralization [16]: 0.0169 µg/mL

2G12 (antibody)
IC50, pseudovirus neutralization [1]: 2.26 µg/mL | IC50, pseudovirus neutralization [3]: 0.59 µg/mL | IC50, pseudovirus neutralization [4]: > 50 µg/mL | IC50 (µg/ml), pseudovirus neutralization [17]: > 50 µg/mL | IC50 (µg/ml), pseudovirus neutralization [18]: > 50 µg/mL | IC50 [19]: > 50 µg/mL | IC50 (µg/ml), pseudovirus neutralization [20]: > 50 µg/mL | IC50 (µg/ml), pseudovirus neutralization [21]: > 50 µg/mL | IC50 (µg/ml), pseudovirus neutralization [22]: 23 µg/mL | IC50 (µg/ml), pseudovirus neutralization [23]: 0.49 µg/mL | IC50 [24]: > 50 µg/mL | IC50 (µg/ml), pseudovirus neutralization [25]: > 50 µg/mL | IC50 [26]: > 50 µg/mL | IC50 (µg/ml), pseudovirus neutralization [27]: 28.2 µg/mL | IC50, pseudovirus neutralization [28]: > 50 µg/mL | IC50 (µg/ml), pseudovirus neutralization [29]: > 50 µg/mL | IC50 (µg/ml), pseudovirus neutralization [30]: > 50 µg/mL | IC90 (pseudovirus neutralization) [31]: > 50 µg/mL

5141_B17 (PGT-126) (antibody)
IC50, pseudovirus neutralization [1]: 0.0163 µg/mL | IC80 (pseudovirus neutralization) [1]: 0.0457 µg/mL | IC90 (pseudovirus neutralization) [1]: 0.0846 µg/mL | IC95 (pseudovirus neutralization) [1]: 0.152 µg/mL | IC50 neutralization [2]: 0.0046 µg/mL | IC50, pseudovirus neutralization [3]: > 10 µg/mL | IC80 (pseudovirus neutralization) [3]: > 10 µg/mL | IC90 (pseudovirus neutralization) [3]: > 10 µg/mL | IC95 (pseudovirus neutralization) [3]: > 10 µg/mL | IC50, pseudovirus neutralization [4]: 0.0091 µg/mL | IC80 (pseudovirus neutralization) [4]: 0.0316 µg/mL | IC90 (pseudovirus neutralization) [4]: 0.0655 µg/mL | IC95 (pseudovirus neutralization) [4]: 0.128 µg/mL | IC50 neutralization [5]: 0.012 µg/mL | neutralization IC50 (pseudovirus) [6]: 0.501 µg/mL | IC50 neutralization [7]: 0.0249 µg/mL | Polyclonal Transfectant Neutralization Index [32]: 2.74 | Primary Neutralization Index (B cell culture supernatant) [32]: 2.3 | IC50, pseudovirus neutralization [8]: > 10 µg/mL | IC50 [9]: 17.3 µg/mL | IC50, pseudovirus neutralization [10]: > 50 µg/mL | IC50, pseudovirus neutralization [11]: > 50 µg/mL | IC50 (µg/mL), pseudovirus neutralization [12]: > 50 µg/mL | IC50 (µg/mL), pseudovirus neutralization [13]: > 50 µg/mL | IC50 neutralization [14]: 0.014 µg/mL | IC50 neutralization [15]: 0.0076 µg/mL | IC50 neutralization [16]: 1.14 µg/mL | IC50, pseudovirus neutralization [31]: > 10 µg/mL | IC80 (pseudovirus neutralization) [31]: > 10 µg/mL | IC90 (pseudovirus neutralization) [31]: > 10 µg/mL | IC95 (pseudovirus neutralization) [31]: > 10 µg/mL

1443_C16 (PG16) (TCN-116) (antibody)
IC50, pseudovirus neutralization [1]: > 50 µg/mL | IC50, pseudovirus neutralization [3]: > 50 µg/mL | IC50, pseudovirus neutralization [4]: 0.008 µg/mL | IC50 (µg/ml), pseudovirus neutralization [17]: 0.007 µg/mL | IC50 (µg/ml), pseudovirus neutralization [18]: 0.003 µg/mL | IC50 [19]: 0.02 µg/mL | IC50 (µg/ml), pseudovirus neutralization [20]: 0.01 µg/mL | IC50 (µg/ml), pseudovirus neutralization [21]: 0.003 µg/mL | IC50 (µg/ml), pseudovirus neutralization [22]: > 50 µg/mL | IC50 (µg/ml), pseudovirus neutralization [23]: 0.02 µg/mL | IC50 [24]: 0.02 µg/mL | IC50 (µg/ml), pseudovirus neutralization [33]: 0.01 µg/mL | IC50 (µg/ml), pseudovirus neutralization [25]: 1.12 µg/mL | IC50 [26]: 0.15 µg/mL | IC50 (µg/ml), pseudovirus neutralization [27]: 3.09 µg/mL | IC50, pseudovirus neutralization [28]: 14.8 µg/mL | IC50 (µg/ml), pseudovirus neutralization [29]: > 50 µg/mL | IC50 (µg/ml), pseudovirus neutralization [30]: 0.09 µg/mL | IC90 (pseudovirus neutralization) [31]: > 50 µg/mL
